Measured values as given in patent publication US12030916 (AUCTUS BIOLOGICS, dated 2024).

Molecular target: T1, RPtag small tight peptide (Nd2,P5A,E18A) with a C-terminal GGC sequence (C-terminal Cys reacted with maleimide-activated plate (immobilised))
T1 construct: also called RPtag small peptide; bait peptide
T1 peptide: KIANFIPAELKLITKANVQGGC
Test: capture ELISA, peptide immobilised on maleimide plate
Description: White Pierce™ Maleimide Activated Plates were washed 4× with 200 μL 50 mM phosphate pH 7.4, 150 mM NaCl, and reacted with 100 μL of RPtag small peptide that binds with high affinity to RPtag large. Specifically, RPtag small tight peptide (Nd2,P5A,E18A; […]; SEQ ID NO:5) with a C-terminal GGC sequence ([…] (SEQ ID NO:5)+GGC) dissolved in 50 mM phosphate pH 7.4, 150 mM NaCl, 10 mM EDTA overnight at room temperature as bait. Plates were then washed 4× in 50 mM phosphate pH 7.4, 150 mM NaCl, and blocked for 1 hour at room temperature with 10 mM L-Cys in the same buffer, washed 4× as before, and blocked for 1 hour at room temperature with 50 mM phosphate pH 7.4, 150 mM NaCl, 1% BSA, 0.05% Tween20 (blocking buffer).
Plates were washed 4× as before, serum samples were diluted 1:100 in blocking buffer, and then serum was incubated with the baited plates for 2 hours at room temperature. […]
To test for intact N-termini, wells were then washed 4× as before, and incubated with a 1:10,000 dilution of HRP-conjugated mouse anti-FLAG antibody (M2 clone, 1 mg/mL stock) from Sigma-Aldrich for 1 hour at room temperature. Samples were then washed 4× as before, and assayed using SuperSignal™ ELISA Femto Substrate measured using a Molecular Devices SpectraMax i3 plate reader in luminescence mode. […]

B1: RPtag large-B12 construct (RPtag large with 3xFLAG tag, proline and Cys residue, B12-maleimide conjugated, 8xHis tag removed by TEV protease) (designed binder)
chain: KTIGLVISTLNNPFFVTLKNGAEEKAKELGYKIIVEDSQNDSSKELSNVEDLIQQKVDVLLINPVDSDAVVTAIKEANSKNIPVITIDRSANGGDVVSHIASDNVKGGEMAAEFIAKALKGKGNVVELEGIPGASAARDRGKGFDEAIAKYPDIKIVAKQAADFDRSKGLSVMENILQAQPKIDAVFAQNDEMALGAIKAIEAANRQGIIVVGFDGTEDALKAIKEGKMAATIAQQPALMGSLGVEMADKYLK
modifications: B12-maleimide covalently attached at the added Cys residue (47% labeling efficiency; the preparation is a mixture of free RPtag large and B12-RPtag large conjugate); position of the Cys not stated
notes: Construct expressed with N-terminal 8xHis tag and TEV site, both removed by TEV protease before use; In the assay it stood either in mouse serum after oral gavage or as a standard of known concentration; Formulated with 1 M D-ribose for dosing; also called B12-RPtag large conjugate; B12-RPtag conjugate; not shown: N-terminal leader left after TEV cleavage: 3xFLAG tag, a proline after it and a Cys …
B1: binds.
